Measured values as given in the DeepSol protein solubility set.

assay: soluble on expression in E. coli; label from the status in PepcDB or PDB records

Sequence | soluble on expression in E. coli
MGSSHHHHHHSSGLVPRGSHMASKSFQLLEPYNIKANLRPYQIKGFSWMRFMNKLGFGICLADDMGLGKTLQTIAVFSDAKKENELTPSLVICPLSVLKNWEEELSKFAPHLRFAVFHEDRSKIKLEDYDIILTTYAVLLRDTRLKEVEWKYIVIDEAQNIKNPQTKIFKAVKELKSKYRIALTGTPIENKVDDLWSIMTFLNPGLLGSYSEFKSKFATPIKKGDNMAKEELKAIISPFILRRTKYDKAIINDLPDKIETNVYCNLTPEQAAMYKAEVENLFNNIDSVTGIKRKGMILSTLLKLKQIVDHPALLKGGEQSVRRSGKMIRTMEIIEEALDEGDKIAIFTQFVDMGKIIRNIIEKELNTEVPFLYGELSKKERDDIISKFQNNPSVKFIVLSVKAGGFGINLTSANRVIHFDRWWNPAVEDQATDRVYRIGQTRNVIVHKLISVGTLEEKIDQLLAFKRSLFKDIISSGDSWITELSTEELRKVIELSVGGY | soluble
MGSDKIHHHHHHMSRDKTLFVCQECGSISNKWLGRCPDCGAWNSFVEQRVEKTVAKSQTTYATASPPQFLHAVPITDVGRSTTGLAELDRVLGGGQVPGAAILLGGEPGIGKSTLLLQTAHHLAQVSKVLYVTGEESAAQVALRAQRLGLGRSPVRVVAENHLEAIEGLLRGEQPALVLVDSIQTVYTDTLQSAPGSVAQVRECAARLVRFAKATGTTVWLVGHVTKEGAIAGPRVLEHMVDTVLYFEGEAGSPYRIVRAIKNRFGAANELGVFQMHEEGLSEVANPSQLFLSQHERPVAGSVVLATQEGTRPLLVEVQALVTPSPLANPRRVAIGLDPNRLSLLLAILHRHGDSMFFDQDVFVNIAGGIKVNEPAADLAVALALVSSFRNKPLEGRRVVFGELGLAGEVRPVAGTEARVREAVKLGFKGAILPRSDKISAAATFKLHPAGRLGDAMEAAFAAE | not soluble
MAHHHHHHMSLITTICRHPLASKRFMIVFRNEEGEELPEIFELRTRYEAIAPIAKGAYGFVCAATDNDLVENFHMSPPEEYNDPSLSKEERLDIYESHTTVAVKKLRQLFEQNRPRMWLCATREIQLMMAFKHENVMSALDFFIPLGDCERMTYESVEYLRHNFDSVYIVMKKMEYTLREVLESSVFTTTDTQDECGKLSNGKITSSAGTEKHDDGAHDDINKSTARRNERIARCPQTHLVLHPLARDYRMFILYQLLRGVGYMHLCLVIHRDIKPENIMLDRNYNTRVCDFGQGRDAVATELDGVLQTFLDNCTQWYAAPETLTLANVSSPSGFVDQKTLHAADVWSIGCIAAEMVIGRPLFYCRHSGGVGQLNAIMGVLGKIPEEAAERILQHRDEDTQKLFESVMRREMQQHLHKPSTLRRLLQSPYGDVDEEEIRLIERLLCYDPSQRITIQEALQSNYFINEGYEPVIDPDDTATHVRAVEAKEVVDAVRGRRFLWSLFLKHHPEVEELMRVLEIRRNSSSTDSTEVPPPACV | soluble
MEEKTILAQILQVLDLYAADMRKQFEALHEKFDSLQRQVQALNEKTDEMDKRIEEMDGRFERQIAQLERTVNERFERLEAKLGHIRVELVETQETVDFHSVKIAQHDRKIRHLLHAR | not soluble
MRRNKRERQELLQQTIQATPFITDEELAGKFGVSIQTIRLDRLELSIPELRERIKNVAEKTLEDEVKSLSLDEVIGEIIDLELDDQAISILEIKQEHVFSRNQIARGHHLFAQANSLAVAVIDDELALTASADIRFTRQVKQGERVVAKAKVTAVEKEKGRTVVEVNSYVGEEIVFSGRFDMYRSKHSLEHHHHHH | soluble
MGDIEDAPRIISGIGELDRATGGGFVRGSALLVGGDPGIGKSTLLTQAAAALASRGHRIVYVSGEEAVAQIRLRAQRLGVADSPVELAAETNVEDILATIADGKRPDLVILDSIQTLWTDLADSAPGTVTQVRAAAQAMIRYAKSTGAAIVLVGHVTKEGQIAGPRVVEHMVDGVLYFEGEGGHHYRILRTVKNRFGLEHHHHHH | not soluble
MSLSVAVSPLAPKSYPDMPALRGVRMATAAAGIKYKNRTDVLLMVFDKPASVAGVFTKSKCPSAPVDFCRANLGSGAARAVVVNSGNANAFTGVKGKAATELTAKSAAAAVGCSEGEIFLASTGVIGEPLDASKFAGVLGDMNVRAEADFWQEAAKAIMTTDTYPKVSTRTAEIGGVIVTINGISKGAGMIAPDMATMLSFVVTDADIEPAALQSLLSAGVGPTFNSVTVDSDTSTSDTLMLFATGAAAEDGQVKVTSADDERLSSFRAALNDLLKDLALQVVRDGEGARKMVEVTVTGAENDAAAKKIALSIANSPLVKTAVAGEDANWGRVVMAVGKSGEMADRDRLAIWFGGVRVAVNGERDPDYSEAETTAVMRLEDITVKVDIGLGQGTATVWTCDLTKEYVAINGDYRSEGHHHHHH | not soluble
MVIMSSTFMGYERENGRIGTRNHVLIIPVDDLSNTVAAAVENNIFGTRAILHPYGRLQFGADLDLTFRTLAGYGRNPNVASAIVVGIEDNWTNRIADQISQTGKHVETVSIEGSGDLKAIEKASRLAKEMAQESSTKTRKEFDVSNLIVSTKCGESDTTSGLASNPTVGVVFDRLVDEGATVIFGETSELTGAEKYIAEKMANNELKDKFMKIFNDYQDVIKSQGVDLLGSQPTEGNIKGGLSTIEEKALGNIQKAGTKKITGVLDYAEEPKSKGLNFMNTSSAAAEAVTLFAAAGAVVHLFTTGQGNIVGNHILPVIKTTANPKTAKNMAEHIDLDLSGLLKFEYTLKDAGDKLYNLLLETASGKLTSNEVLKHYEFALTKLYISA | not soluble
MSVSNTQFNPFGNHETNLKELKLQLEQVTSKSVKQIEDVKGLTVTLERLTEIAKNIPETAIQSLISEIVASFPKCVSVLGEKKPEDLRTASFISLLRRLNQFIQTIADRVTKPFDSDVLKEWAPIFVSLLTGKHSALKENGALLWKKTFGTVKNNLICPEDLRGILDSMPKRYAISVPQSTSSKTDGYFSDDEAMDGLPTSSAAGAGNNFKFPKIKTEVIESQSSFQFSQQPVADEVAEKLLKEQKLKAEETQSPKTSSTETSRRRTSRMALIDEDSCDFVAILTSPATRKNRLTDRQKEKLEEVSGPRTTINYMDEESQNGFVKTEQFKKALTAMNFEVEDESVSAPTSKNSENPEILPIDEIPTVHVESAKSDKTPEPVKKTNKRRRLFHDQPVSAFATESSRKPEIANNDLGEILEKLPEHASTKSPEQKRGRKDSAISCETSDDISDSMKSNDSRTIITQQEHAVEQKSRKKPGRPKNSRNRSETTRKSGRLSAIQNNACVTSESSMSNETGDVEKTDDKKESVQNIPEQEAAEKKEVDTTISDKRLSDTEEAIEENIVKSPPKTPRTPSILRVGKRMSTSSSPMTERKRNRVHFGEESLPVDVVSSPLTPRRRPLAEAAKNPFVEATVAASNSNLSDIQSSTNDSSFYPTLADCRDKIDRILPNLVTLCMKTVLDSAKRSLSAVGVKTVGDFASLSKSDIEKFTWIKGRVVGARNVLMQYEKTRNAERREEIVDGSEEKPMDVADAIPPEIEAVSPSSKDSQSVPMETKDNSPPANEVIAQELPKASPISNTPSVESTQPALNVQKTPEASQSPASPISSNTGSSTFTVDPTPVQKDLSVVLSRKNLAPIFCGGLKNFKKEQLCPQKQCEKAKDAEKSFVEDGRVLHRICVSLSNAHTQNHWPSENSSKLLSNINKASILFKNLVQTRGAGDWDDTDLENDDLSTAESDVATDVDVLVAVYKRFSRHHTSPMANNLPWRSVMECVNEAACLLESIFLTRAPNKGSM | not soluble
MSLNIIERQKLTQSLKLSQMMKLSINILKMSVMDLNKFIEKEFSEDSGISVELNYSKKENFNGGKEAEMNYPTDEKNFFQILEEQLSYFKINKKIKEICIFIINNLDKKGYLELSKIEIKDILEVSNKELEEAFDIIHNLEPYGIGAYSLEECLKIQLKAKKIIEEKLSLFIDNYLYLLADKKYDLIKEKLNINDNILFSYIDIIKSLNPIPSRGYSVGKVRKIIPDVLVEIKKNEIFYEINRASIPQINVKDKIEDEGHHHHHH | not soluble
MVKATNVDLSLEDIISKTRKTTGSIQKKSFGGARRGNTRPTGLPRRSGGSGGWKDLDAVQNHGISSRGNDSKVIRVNISNLAPTVISSDLEELFGDYRLSSVSVNFNEHGDSLGTGDISLTKRDAERLVQKFSGVALDGKIMKFAVIDSSNMAGRVDFGNRSRSSPGRSSRGFQSGPRRNNGKPEDFLRDGVHAGDIKRGGAGRGGFRKGGRGGARDAKPKKTEAELDAELEAYMAKRNA | soluble
MKKVFDVWDVETAKRFLEIIKDEPIYYPALIALHTGMRAGEILSLKWCDVNFETRVISIVKSERKNRGLKTVNLKTKTSKRAVYMNDILYKELKNLYEITKPKPDDFVCPRLPTGNLTVNYLSRKFKKLVKKHNFPLIRFHDLRHTFATLMLSLGVNTKIVAEILGHSDIKLTADTYSHVLPTMQEEAMKEFVKLWKLEHHHHHH | soluble
SEKTQETVQRILLEPYKYLLQLPGKQVRTKLSQAFNHWLKVPEDKLQIIIEVTEMLHNASLLIDDIEDNSKLRRGFPVAHSIYGIPSVINSANYVYFLGLEKVLTLDHPDAVKLFTRQLLELHQGQGLDIYWRDNYTCPTEEEYKAMVLQKTGGLFGLAVGLMQLFSDYKEDLKPLLNTLGLFFQIRDDYANLHSKEYSENKSFCEDLTEGKFSFPTIHAIWSRPESTQVQNILRQRTENIDIKKYCVHYLEDVGSFEYTRNTLKELEAKAYKQIDARGGNPELVALVKHLSKMFKEENE | soluble
MTSSTGTRRLTAKGRATRDRIVAAAAQLMYERGVTGTSTEDILKAARVASPSQLYHYFGDKRGLVQAVIEHQTEQVLGFQKPLLSRLDSIEALEAWRDAVVEAQHARDCQGGCPLGSLASELSDLDPQARARLVAGYEQWGNAIREGLRSMRERGELDGGADPDRLALALLTALQGGLLMTQTRRDTIALEAVLNTMIDHIRFRTTP | soluble
MGSDKIHHHHHHMPSIFEKYHLKQVINTSGRMTALGVSTPRPEVVEAAMAGMNQYFEMKDLVNKTGEYIAKLLDVEGATVVSCASAGIAQSVAAVLVKDSDWLLENLHVTPIENNEIVLPKGHNVNFGAPVGTMVALGGGKLVEAGYANECSAQQLAAAITPRTAAILYIKSHHCVQKSMLNVAQAAEVARQHNVPLIVDAAAEEDLQCYYRMGADLVIYSGAKAIEGPTSGLVIGKTQYVEWVKRQSMGIGRAMKVGKEGILGLTCAIEHYLTASKESGQQMVAKMTPFIEQLNTLNGVTARVVWDSAGRDIARAEIKFDEATTGVKTGDLVNALKQGEYAIYFRGYKANEGIIEADVRSVNAQQLEVVARRIAEVLNKEKQA | not soluble
MGSDKIHHHHHHMNKTDIAQDTINAAVWTACDTFRGTVDPSVYKDYVLTMLFLKYVSDVWQDHYDDYKTKHGNKPGLIEELLKNERFVLPHRANFYTLYDQRHRPGNGERIDTALHAIEDANLGKLRDVFQDISFNANKLGEEQQKNDLLRHLLEDFAKPALNLRPSRIGQLDIIGNAYEYLIKNFASSSGKKAGEFYTPPEVSALMARLMDPQQGDEICDPTCGSGSLLLKCGRLIRERTGSGKYALYGQEAIGSTWALAKMNMFLHGEDNHRIEWGDTIRNPKLLAGNHLKHFDIVVANPPFSLEKWGHDSADTDPHDRFRRGLPPRTKGDYAFILHMIATMKPRTGRMAVVVPHGVLFRGAAEGRIRQKLIEENLLDVVIGLPEKLFYGTGIPAAVLVFRTKKKDKKVLFIDASRQYQDGKNQNLLRESDLQRILDTVQARQNVDKYAYLASPDEIAGHDYNLNIPRYVDTFEEEAEIDLMAVRREREQLKGELATLEMQMAAYLKELGYE | not soluble
MGSDKIHHHHHHMGYAYLRGLRNARLQNNNDETSTVFRSCSVPTFQKMRSAYGRRVVKDVFAPNGGVFINRLVEYVTGQGHDFENMLAQKLAISEPLSSSAQVLPVYEHSLVFGLAERVCNDTSIGYALAYQCTLRDAGLVGYAVSASETAGEALYTLSRLSNVFEVVSASASGGLVDLRWDFGSQGKLDLRHWSEFIATLLVRSLKTLCTGAVAPVGVEFTHTAPSSSEQAVLAFGVKPTYRGRLNRLTFREQDLRQPLRSADAGLLRLLLEHAELLRRRPDRNSNDLSITVERLIMDGMSEGDASLAQVAESLDMSQRTLSRKLASEGTSFFAILEGVRKSLALRYLQQNEKSLSEISFALGYSSLSSFNDAFRRWYDQSPGSYRSDALKEAAVKS | not soluble
